Data on two substances can be found in article PMC8782820.

Assay [1] has as its target hepcidin-imprinted silk fibroin (SilMA) nanoparticles, bioMIPs (Bombyx mori). In words: other fluorescence titration; 37.5 μg of bioMIPs or non-imprinted SF-NPs per well incubated with hepfitc 3 nM–2.5 μM in PBS 10 mM pH 7.4 with 0.08% Tween-20, read at 30 min; Langmuir fit; apparent.
For assay [2] the target is unchanged. In words: competitive fluorescence assay; bioMIPs incubated with hepfitc (500 pmol) alone or with one competitor (hepcidin; angiotensin, cytochrome c or human serum albumin 6 nmol); bound hepfitc at 30 min; triplicate.
The target is the same in assay [3]. In words: competitive fluorescence assay; 30 μg/well of bioMIPs with hepcidin-depleted pooled serum (10 μL in 150 μL PBS 10 mM pH 7.4, 0.08% Tween-20), hepfitc 500 or 250 pmol, hepcidin competitor 0.11, 0.34, 0.68, 2.70 μM; displacement from ≥ 120 min of incubation; Hill fit.
Assay [4] shares this target. In words: ITC; hepcidin 28 μM (syringe, 50 μL) titrated into bioMIP or control SF-NPs 2.5 μM (220 μL) in 50 mM PBS pH 7.4, 25 °C, 16 injections of 3 μL; independent site model; triplicate. A general note: ITC needs no label: the signal is the heat of the interaction.

As to “fluorescent hepcidin (hepfitc) (peptide)”, in assay [1], the Kd came out at 1670 nM and the imprinting factor (hepfitc bound to the bioMIP with respect to that bound to the NIP) came out at 2. Further, the hepfitc bound at 30 min in assay [2] is 125 pmol.
Regarding “Hepcidin-25 (from UniProt P81172 60-84) (peptide)”, in assay [3], the Ka was 2.41e+06 M⁻¹ and the Kd stood at 410 nM. For the same substance, in assay [4], the Kd was determined as 360 nM; the dH is -14 kcal/mol; the stoichiometry N (usually the number of molecules, sites or subunits per partner or assembly) worked out at 2.1.
